Measurements as given in the supplement of paper PMC9112550, “Optimization of the antimicrobial peptide Bac7 by deep mutational scanning” (BMC Biology, 2022).

tested on: Escherichia coli TOP10; test: shrunken log2 fold change of peptide-encoding DNA abundance (4.5 h post-induction vs induction); higher = less antimicrobial activity (less host growth inhibition); details: time post-induction: 4.5 h; library: site-saturation at positions 5, 18, 19, 20
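Note: peptides expressed intracellularly from a pBAD plasmid library in pooled LB shake-flask culture, induced with 0.3% L-arabinose, DNA abundance read by NGS, three biological replicates, DESeq2 with apeglm shrinkage.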

Sequence | shrunken log2 fold change
RRIRHRPPRLPRPRPRPDQIPRP | -0.0166
RRIRMRPPRLPRPRPRPPCSPRP | 0.489
RRIRNRPPRLPRPRPRPWLHPRP | -0.0277
RRIRHRPPRLPRPRPRPLGEPRP | 0.433
RRIRLRPPRLPRPRPRPFALPRP | 0.187
RRIRWRPPRLPRPRPRPFWHPRP | -0.0195
RRIRPRPPRLPRPRPRPFMRPRP | -0.1
RRIRLRPPRLPRPRPRPIVIPRP | -1.37
RRIRKRPPRLPRPRPRPIGTPRP | 0.105
RRIRQRPPRLPRPRPRPQWRPRP | 0.419
RRIRNRPPRLPRPRPRPHCVPRP | 0.0245
RRIRFRPPRLPRPRPRPNIGPRP | -0.0107
RRIRVRPPRLPRPRPRPAICPRP | -0.0408
RRIRCRPPRLPRPRPRPIAFPRP | -0.195
RRIRDRPPRLPRPRPRPPKYPRP | -0.47
RRIRWRPPRLPRPRPRPNHWPRP | -0.0748
RRIRDRPPRLPRPRPRPIYKPRP | -0.175
RRIRKRPPRLPRPRPRPSEIPRP | 0.157
RRIRDRPPRLPRPRPRPPSIPRP | -0.0216
RRIRRRPPRLPRPRPRPENLPRP | 0.0548
RRIRYRPPRLPRPRPRPKREPRP | 0.0201
RRIRNRPPRLPRPRPRPENIPRP | -0.435

Sequence | shrunken log2 fold change
RRIRWRPPRLPRPRPRPDNVPRP | -0.26
RRIRARPPRLPRPRPRPRDTPRP | 0.673
RRIRQRPPRLPRPRPRPPHDPRP | 1.12
RRIRMRPPRLPRPRPRPHEIPRP | 0.356
RRIRQRPPRLPRPRPRPVTYPRP | -0.219
RRIRNRPPRLPRPRPRPPQTPRP | 0.424
RRIRMRPPRLPRPRPRPVQGPRP | 0.0203
RRIRGRPPRLPRPRPRPMTFPRP | 0.536
RRIRIRPPRLPRPRPRPCQGPRP | -0.0156
RRIRTRPPRLPRPRPRPETLPRP | 0.0577
RRIRARPPRLPRPRPRPFHAPRP | -0.0904
RRIRWRPPRLPRPRPRPQCHPRP | -0.13
RRIRMRPPRLPRPRPRPYWCPRP | -0.0737
RRIRYRPPRLPRPRPRPRNSPRP | 0.022
RRIRIRPPRLPRPRPRPVDRPRP | 0.0811
RRIRSRPPRLPRPRPRPWLLPRP | -0.337
RRIRVRPPRLPRPRPRPKWYPRP | -0.194
RRIRRRPPRLPRPRPRPCDQPRP | 0.0305
RRIRDRPPRLPRPRPRPLTAPRP | 0.48
RRIRNRPPRLPRPRPRPPVFPRP | 0.15
RRIRQRPPRLPRPRPRPTDYPRP | -0.116
RRIRCRPPRLPRPRPRPNMTPRP | -0.229

Sequence | shrunken log2 fold change
RRIRRRPPRLPRPRPRPLMEPRP | -0.0263
RRIRQRPPRLPRPRPRPRQHPRP | -0.141
RRIRDRPPRLPRPRPRPSKPPRP | -0.0858
RRIRVRPPRLPRPRPRPPEQPRP | 0.0662
RRIRQRPPRLPRPRPRPHQTPRP | -0.0333
RRIRIRPPRLPRPRPRPLLPPRP | -0.0454
RRIRVRPPRLPRPRPRPSCLPRP | -0.618
RRIRQRPPRLPRPRPRPNMYPRP | -0.433
RRIRLRPPRLPRPRPRPQRIPRP | -0.141
RRIRNRPPRLPRPRPRPWPGPRP | 0.281
RRIRARPPRLPRPRPRPCYKPRP | -0.0942
RRIRVRPPRLPRPRPRPRDEPRP | 2.79
RRIRQRPPRLPRPRPRPIRVPRP | -0.00674
RRIRDRPPRLPRPRPRPRDKPRP | -0.0712
RRIRMRPPRLPRPRPRPMSYPRP | -0.175
RRIRKRPPRLPRPRPRPDHFPRP | 0.0027
RRIRTRPPRLPRPRPRPLIHPRP | -0.552
RRIRNRPPRLPRPRPRPALEPRP | 0.025
RRIRLRPPRLPRPRPRPANLPRP | -0.00914
RRIRGRPPRLPRPRPRPNPGPRP | 0.158
RRIRTRPPRLPRPRPRPYARPRP | -0.000715
RRIRIRPPRLPRPRPRPYKEPRP | 0.0131

Sequence | shrunken log2 fold change
RRIRWRPPRLPRPRPRPQDDPRP | 0.0379
RRIRHRPPRLPRPRPRPESVPRP | 0.0222
RRIRKRPPRLPRPRPRPIEYPRP | -0.156
RRIRLRPPRLPRPRPRPDCCPRP | 0.0778
RRIRKRPPRLPRPRPRPMPHPRP | 0.274
RRIRWRPPRLPRPRPRPMQKPRP | -0.0122
RRIRQRPPRLPRPRPRPLSHPRP | -0.168
RRIRWRPPRLPRPRPRPYCEPRP | -0.481
RRIRHRPPRLPRPRPRPRSHPRP | -0.221
RRIRKRPPRLPRPRPRPDEGPRP | -0.01
RRIRDRPPRLPRPRPRPWRGPRP | 0.196
RRIRTRPPRLPRPRPRPSNNPRP | -0.639
RRIRMRPPRLPRPRPRPVLPPRP | -0.0643
RRIRLRPPRLPRPRPRPVVPPRP | 0.139
RRIRPRPPRLPRPRPRPDQSPRP | 0.021
RRIRIRPPRLPRPRPRPCPTPRP | -0.0511
RRIRSRPPRLPRPRPRPDCTPRP | 0.038
RRIRYRPPRLPRPRPRPMFTPRP | -0.629
RRIRWRPPRLPRPRPRPAHLPRP | 0.15
RRIRRRPPRLPRPRPRPVVMPRP | -0.0785
RRIRPRPPRLPRPRPRPRAQPRP | 0.33
RRIRDRPPRLPRPRPRPAQSPRP | 0.216

Sequence | shrunken log2 fold change
RRIRTRPPRLPRPRPRPADWPRP | 0.446
RRIRKRPPRLPRPRPRPDGPPRP | 0.022
RRIRKRPPRLPRPRPRPCLHPRP | -0.0515
RRIRGRPPRLPRPRPRPFQIPRP | -0.0147
RRIRPRPPRLPRPRPRPELPPRP | 0.175
RRIRQRPPRLPRPRPRPIDAPRP | 0.000655
RRIRTRPPRLPRPRPRPFQIPRP | -0.103
RRIRERPPRLPRPRPRPWGIPRP | -0.234
RRIRTRPPRLPRPRPRPWPSPRP | -0.00931
RRIRPRPPRLPRPRPRPIPGPRP | 0.0171
RRIRERPPRLPRPRPRPHHIPRP | -0.0669
RRIRTRPPRLPRPRPRPVDNPRP | -0.0554
RRIRVRPPRLPRPRPRPEIYPRP | -0.348
RRIRLRPPRLPRPRPRPAFYPRP | 0.903
RRIRGRPPRLPRPRPRPQCDPRP | 0.479
RRIRVRPPRLPRPRPRPPHVPRP | 0.283
RRIRKRPPRLPRPRPRPCGLPRP | 0.933
RRIRWRPPRLPRPRPRPMFFPRP | 0.111
RRIRHRPPRLPRPRPRPMGYPRP | -0.134
RRIRRRPPRLPRPRPRPQYPPRP | -0.444
RRIRSRPPRLPRPRPRPQTAPRP | 0.0464
